This is an account of results in PMC11321638 (Advanced Science, 2024).

The data set has as its system HT22 nerve cell. The format is cell-based, Mouse.

Consider Botulinum Toxin Type A [Botox], for which the “induction of apoptosis in HT22 cells” value is reported as “dose‐dependent induction of apoptosis” and the “necrocytosis of HT22 cells” value is reported as “neither RSI prion nor Botox induced necrocytosis”.
